From patent US20050148508
Where a chain is given by its changes, count along the chain named.

What was measured:
[1] = test system: T1, pigment epithelium derived factor (PEDF) isolated from human plasma
T1 sequence: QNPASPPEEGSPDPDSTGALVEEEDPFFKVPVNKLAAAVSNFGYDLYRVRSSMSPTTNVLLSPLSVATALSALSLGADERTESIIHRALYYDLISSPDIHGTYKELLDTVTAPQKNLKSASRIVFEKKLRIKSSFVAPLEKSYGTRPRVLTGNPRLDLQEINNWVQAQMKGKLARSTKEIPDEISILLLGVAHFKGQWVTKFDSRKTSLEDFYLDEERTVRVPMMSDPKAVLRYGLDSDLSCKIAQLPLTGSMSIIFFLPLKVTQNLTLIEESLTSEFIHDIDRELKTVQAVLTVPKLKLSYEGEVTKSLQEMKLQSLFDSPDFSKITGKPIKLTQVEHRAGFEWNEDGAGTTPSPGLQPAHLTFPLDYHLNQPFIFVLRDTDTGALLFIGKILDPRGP

[2] = biological target: T2, recombinant human PEDF expressed in CHO cells (UniProt P36955)
T2 sequence: T1 sequence with M53T, D78E, E79Q

protein kinase CK2 holoenzyme
phosphorylation by CK2 in the presence of poly-L-lysine (autoradiography) [1]: both rPEDF and pIPEDF were phosphorylated by CK2 in the presence of poly-L-lysine | stoichiometry of phosphorylation [1]: ˜0.02 mol of phosphate per mol of plasma PEDF | stoichiometry of phosphorylation, plasma PEDF heat-treated (15 min at 56° C.) before phosphorylation [1]: reached a plateau at ˜0.12 mol/mol | phosphorylation by CK2 in the presence of poly-L-lysine (autoradiography) [2]: both rPEDF and pIPEDF were phosphorylated by CK2 in the presence of poly-L-lysine | stoichiometry of phosphorylation [2]: ˜0.1 mol of phosphate per mol of rPEDF | stoichiometry of phosphorylation, rPEDF heat-treated (15 min at 56° C.) before phosphorylation [2]: reached a plateau at ˜0.25 mol/mol
